The nature of the data set: soluble on expression in E. coli; label from the status in PepcDB or PDB records.
In the case of “MDAQGLRLITALKLCILATKKDGTPLYSDREQYIFSELYGLEGNEIQNMISLGDKLGLSRERIRQLKVKVFKKFGILRKRNIPAIIDIDNLLTNNHQINLDEVHNFACYLKKFQESHLSEYPIETLFDLAQLYFKQDYSIIKTWKREIKETSTIFPKKQNSQLTDITNKIIWFDHVKSWTLEEIHQITPHRNYDPNKKYLESEAGEFYSNKLQRNVFYESMLEKKFYKRLEKSHEVIYYVEQGITITYDRGKYTPDAIVFLDDGKGFVVEIKPLTEMANQSVQKKFKALLDFCEETGLGATLTDGRTDINHIFETIPNLAFEESILQSLKEFKKLTYGKVNELKNKYQVTTIHLLQCIIKNNLSYNSMPTFIWKTKKPIICDLLLSPENKMLLKGSTDIINNDKTLEHHHHHH”, the “soluble on expression in E. coli” value is recorded as “not soluble”. Regarding “MSNIYDWSLKADENAHSDNIINWAEGQPPSSVNDSARAMMQRVREYLADNGGSLDSTFIVNAEDKTTSIIVTTASPIEEYKNDIIIRFKAGGVNVGTTTVIVNNIEEKLLYKATNAGVTPLEGGELQRDAIYEMVYNKDVSMEDHGGWYLLNPTPLPPPKIETFPSGFIATFAMQEVPSGWLLCDGAVYERKDYPQLFKAIGDKWGKDSDTTFKVPDFRGMFLRGFDDGRGLDAGRQFADQQHDSIRSHTHIGTIEEAGEHTHKFQYYGVGWDSGDIGRRNPFYYRQSSTGVTQSAGAHTHDISLSPTGEAETRPVNTTVVYAIKS”, the “soluble on expression in E. coli” value is “not soluble”. For “MHLPQMGYDRAITVFSPDGRLFQVEYAREAVKRGATAIGIKCKEGVILIADKRVGSKLLEKDTIEKIYKIDEHICAATSGLVADARVLIDRARIEAQINRLTYDIPITVKELAKKICDFKQQYTQYGGVRPFGVSLLIAGVNEVPKLYETDPSGALLEYKATAIGMGRMAVTEFFEKEYRDDLSFDDAMVLGLVAMGLSIESELVPENIEVGYVKVDDRTFKEVSPEELKPYVERANERIRELLKK”, the “soluble on expression in E. coli” value is listed as “soluble”. On to “MLDYIPWIGNGYRYGNGYKGVAGAGHSATNGSPAGNTSSTTQSNDVAPTFSNVGVGLKANVQGTLGDSQTTTVGGHQWPTLDPANLQLWTGAEWRNDSKTQNNTTTNENHTKFASATGSGQQQGSTTTTSAGNPDSLKQDKADKSGNSISVQEATSGDNLTNYTNLPPNLTPTSDWPNALSFTNKNNAQRAQLFLRGLLGSIPVLVNNLEHHHHHH”, for which the “soluble on expression in E. coli” value is recorded as “not soluble”. On to “MGLCISKHSGSSYSYSDRDHWEVPVNPSNVRAVSSHQTASASDRASDKVDERPATFSHFQLARCGEDYTLSMVSLAAYQAERRHRGNLIKDRSQSALPWVQVYHSETGLNYSFQIDRTTTVKVAGFNYNVPNDGKTRHLYSAGTSQVNMPVIADNMSACIAVACAAENVDAGTG”, for which the “soluble on expression in E. coli” value was “not soluble”.

Regarding “MPAVTQPRGESKYDAIPGPLGPQSASLEGKVALVTGAGRGIGREMAMELGRRGCKVIVNYANSTESAEEVVAAIKKNGSDAACVKANVGVVEDIVRMFEEAVKIFGKLDIVCSNSGVVSFGHVKDVTPEEFDRVFTINTRGQFFVAREAYKHLEIGGRLILMGSITGQAKAVPKHAVYSGSKGAIETFARCMAIDMADKKITVNVVAPGGIKTDMYHAVCREYIPNGENLSNEEVDEYAAVQWSPLRRVGLPIDIARVVCFLASNDGGWVTGKVIGIDGGACM”, the “soluble on expression in E. coli” value is on record as “soluble”. Consider “MAHHHHHHMSLPRRMCMFATCQSNRKSCSMRQSSVTSEGYRYSSTFAAGRLFDAVYVINLDRRPDRWEFATQQLSRAGFLHEEYVRFPAVDGRNVDLQKAHACGLISRLGLLRLQEPEHRRIWGMDLNPGAVGCALSHALLWAQIAASRHRSVLVVEDDSLFPQDFHHKYEARAKQVPSDWELLYVSGLDTAGQAPQLRVAEGVCRVPQMHRTTNCYVVSHRGARLLLDACFPVTYQLDTMMTLRTAGDGAGGVPYVTVPNCYTLQPPLVVQATRMGSDIQSASGGVCDRDEVEEERARCRAAGWEVQETGTLVP”, for which the “soluble on expression in E. coli” value was “not soluble”. With “MRKIKIGLALGSGAARGWSHIGVINALKKVGIEIDIVAGCSIGSLVGAAYACDRLSALEDWVTSFSYWDVLRLMDLSWQRGGLLRGERVFNQYREIMPETEIENCSRRFAAVATNLSTGRELWFTEGDLHLAIRASCSIPGLMAPVAHNGYWLVDGAVVNPIPISLTRALGADIVIAVDLQHDAHLMQQDLLSFNVSEENSENGDSLPWHARLKERLGSITTRRAVTAPTATEIMTTSIQVLENRLKRNRMAGDPPDILIQPVCPQISTLDFHRAHAAIAAGQLAVERKMDELLPLVRTNI”, the “soluble on expression in E. coli” value is reported as “not soluble”.

On to “TTGSDGKATFDVTQNETYGLATPLTATLMRDTTKSATMDVIFTVITSPNSPKAKYWGHMPDTFTSRAGVTFKRPLLAAEATLGSSVSNNNESWSYLFYTNKVTPDCPVEYQPRLNELQGLYNDHPGGTILTDLGLPITAGSGNWWTYEMSTTDALTWYYGVINLKTGQSTTTINGYALMLCL”, for which the “soluble on expression in E. coli” value was “not soluble”. In the case of “MPPKQQLSKAAKAAAALAGGKKSKKKWSKKSMKDRAQHAVILDQEKYDRILKEVPTYRYVSVSVLVDRLKIGGSLARIALRHLEKEGIIKPISKHSKQAIYTRATASE”, the “soluble on expression in E. coli” value is reported as “soluble”. With “MKRIAFVGSVGAGKTTLFNALQGNYTLARKTLAVEFNDKGDIDTPGEYFSHPRWYHALITTLQDVDMLIYVHGANDPESRLPAGLLDIGVSKRQIAVISKTDMPDADVAATRKLLLETGFEEPIFELNSHDPQSVQQLVDYLASLTKQEEAGEKTHHSELEHHHHHH” the entry was “soluble”. With “MTKPFAPASARNRDPILSVLQRYFADRQHVLEIGAGTGQHAVHFAAAMPWLRWQASDHPDHLPGMRQWLDEAALPNTPPPVALQAVLTPAPGLAPAPPLPPVQAGTPAGYDAIYSANTLHIMGWPQVQALFAGLPAVMAPQAVLVIYGPFNRDGEFTSDSNRDFDAMLRARDAASGIRDAAEVDALAAQVGLQLVDDVDMPANNRCRVWQRALEHHHHHH” the entry was “soluble”; with “MIEFNHVSKTFGDQQAVSDLNLHFSEGSFSVLIGTSGSGKSTTLKMINRLVEHDSGTIRFAGEEIRSLPVLELRRRMGYAIQSIGLFPHWTVAQNIATVPQLQKWSRARINDRIDELMALLGLESALRDRYPHQLSGGQQQRVGVARALAADPQVLLMDEPFGALDPVTRGALQQEMTRIHQLLGRTIVLVTHDIDEALRLADHLVLMDGGHVIQQGSPLSMLTSPENDFVQAFFGRSELGVRLLSLRSVGDYVRRHEQLSGDALVEEMTLRDALSMFVARRCDVLPVANQQGEPCGTLHFRDLLSETSPRETTV”, “not soluble”.

In the case of “MASRVNIVQVQILDNPAMFVDKFKMEITFEVFEHLPHDLEWELVYVGSGTSRDFDQVLDSALVGPIPEGRHKFVFDAEHPDISKIPVEDIVGVSVLLLRCKYNDQEFINMGWFVANEYTDEELKENPPAKPLIEKLSRKIETEDLRVTTFPIRWTDEDPVAEPVDEEANKVFDEDDLMPLHDDGQDDDEEEEDDDETGPNTEEVDLNESFNERMANAHDGTEQKNGEESMEHDGASGDVEMGDKH”, the “soluble on expression in E. coli” value is listed as “soluble”.

Regarding “MGHHHHHHSHMSAPIVDAPAAEIVYKIISSDGVVSKMSEKAVQQSKTLSNLIENLGYTIENIETRDPIPVTNVNGKTMAKVAEWCEKHKADAIPEDNMNVLKTLTIPEWDQKFLKIEDEALFDLILASNFLDIKGLMYFGCKTVSNMAKGKTTAELREIFGINTDEQDAAEETAQRAAAEVA”, the “soluble on expression in E. coli” value is “soluble”. Regarding “MTKLVKINYPNIDEDLYYVKLENGLTVYFIKKIGFLEKTAMLTVGFGSLDNKLTVDDESRDAPAGIAHFLEHKLFEDESGGDISLKFTQLGAETNAFTTFNQTSFFFSTASKFQENLELLQYFVLSANITDESVSREKKIIGQEIDMYQDDADYRAYSGILQNLFPKTSLANDIAGSKASIQKITKILLETHHTYFYQPTNMSLFIVGDIDIDETFLAIQRFQTTLSYPDRKRVTVDPLHYYPVIKSSSVDMDVTTAKLVVGFRGYLTLTQHSLLTYRIALKLFLSMLIGWTSKIYHTLYEDGKIDDSFDVDVEIHHNFQFVLISLDTPEPIAMSNYIRQKLATIKISKEFTNEHLNLLKKEMYGDFIQSLDSIEHLTHQFSLYLSDSDKETYFDIPKIIERLTLKDVVTIGKAFFEKADASDFTVFPK”, the “soluble on expression in E. coli” value is reported as “not soluble”. The same measure for “MSNVISVENLGKKYLISHQGREPYTALRDVLTDGARAFYRRLFSPGTSQADAQAEEFWALKDVSFEVKQGDRIGIIGRNGAGKSTLLKILSRITEPTEGRVRIRGRVASLLEVGTGFHPELTGRENIFLNGAILGMNRAEIARKFDEIVAFAEIEKFLDTPVKRYSSGMYVRLAFAVAAHLEPEILIVDEVLAVGDAQFQNKCLGKMEDVSTKEGRTVLFVSHNMGAIDRLCTRAVLLERGRVRLADFTKPVIQMYLDKAKNAISAWSCSTSIPDFDGIFFESISIVNKDRKIAEVLPSNEPFSITLVVNATASLKGVQIAIRITNEQGIPILTTTNCDKAGKLQEISRGRYRYTVSLPASFLPPGYYTLIVASFVPGEKLFDGVEDKLGFCIDDMGSLATLMKDGRLGVVTPLMPWDEVRLLEHHHHHH”: “soluble”; for “GHHHHHHAIAENLYFQSQQVKQKHKKSDEYRVFVGNLPFSWLEDAVRSVFHSYGTVVDVEVPRKREQPERNRGFAFVYFSSREEALAATTLSGSRLDGRIIKVEWADDGSEHRKVGHEELTQRPTHPLASSQVYEWGGQQVQKQNDSVVSKETPNFMPSGALYKEQRMTRYGKELKFVEPLDARKPEQPWRMYVFKNGKLLEGEEGVFYIHQKSNYLFGRDRDVVDIPIDHPSASKQHAVLQFRQVMPKNGNKLVIKPYIMDLESTNGTFLNNERIESLRYYELLEKDLLRFGHSSREFILLTGHK”: “soluble”. The same measure for “DLYFNPRFLADDPQAVADLSRFENGQELPPGTYRVDIYLNNGYMATRDVTFNTGDSEQGIVPCLTRAQLASMGLNTASVAGMNLLADDACVPLTTMVQDATAHLDVGQQRLNLTIPQAFMSNRAR”: “soluble”; for “RGRGPEAAAQEEAEEVGRSGPGRRAAQRRSPGLAMLLASAVVVWEWLNEHGRWRPYSPAVSHHIEAVVRAGPRAGGSVVLGQVDSRLAPYIIDLQSMNQFRQDTGTLRPVRRNYYDPSSAPGKGVVWEWENDNGSWTPYDMEVGITIQHAYEKQHPWIDLTSIGFSYVIDFNTMGQINRQTQRQRRVRRRLDLIYPMVTGTLPKAQSWPVSPGPATSPPMSPCSCPQCVLVMSVKAAVVNGSTGPLQLPVTRKNMPPPGVVKLPPLPGSGAKPLDSTGTIRGPLKTAPSQVIRRQASSMPTGTTMGSPASPPGPNSKTGRVALATLNRTNLQRLAIAQSRVLIASGVPTVPVKNLNGSSPVNPALAGITGILMSAAGLPVCLTRPPKLVLHPPPVSKSEIKSIPGVSNTSRKTTKKQAKKGKTPEEVLKKYLQKVRHPPDEDCTICMERLTAPSGYKGPQPTVKPDLVGKLSRCGHVYHIYCLVAMYNNGNKDGSLQCPTCKTIYGVKTGTQPPGKMEYHLIPHSLPGHPDCKTIRIIYSIPPGIQGPEHPNPGKSFSARGFPRHCYLPDSEKGRKVLKLLLVAWDRRLIFAIGTSSTTGESDTVIWNEVHHKTEFGSNLTGHGYPDANYLDNVLAELAAQGISEDSTAQEKD”: “soluble”; for “SAESPAFLSAKDEGSFAYLTIKDRTPQILTKVIDTLHRHKSEFFEKHGEEGIEAEKKAISLLSKLRNELQTDKPITPLVDKCVDTHIWNQYLEYQRSLLNEGDGEPRWFFSPWLFVECYMYRRIHEAIMQRQVYSQ”: “soluble”. The same measure for “MTTAHRPTFHPARGGTARGEGDLSKLSNQYSSKDMPSHTKMKYRQTGQETEADLRKKDLRRELEDKERNAIREKRARDSASSSSSHSKRQRMDQIAAESAASVDADEAVDELNSSDDDDSDEDDTAALMAELEKIKKERAEEKAARDEEIKEKEEKQRMENILAGNPLLNDTPAGSSTSGGDFTVKRRWDDDVVFKNCAKGVEERKKEVTFINDAIRSEFHKKFMDKYIK”: “soluble”.

The record behind these values is the DeepSol protein solubility set.
